16 molecules from US20140162945A1 (BEIJING HANMI PHARMACEUTICAL, published 2014) can be followed below.

Bridges are numbered along the chain shown (N, C = ends). Where no end group is shown, it is not given here. [ ]: non-standard residue; d: D form. The star is where a group is joined. Phe(4-NO2) = N[C@@H](Cc1ccc([N+](=O)[O-])cc1)C(=O)O; Phe(4-F) = N[C@@H](Cc1ccc(F)cc1)C(=O)O; Palmitoyl = CCCCCCCCCCCCCCCC(=O)*; Met(O) = CS(=O)CC[C@H](N)C(=O)O; Phg = N[C@H](C(=O)O)c1ccccc1; Nle = CCCC[C@H](N)C(=O)O; Aib = CC(C)(N)C(=O)O Where only a bound is given, the exact number is not on record here.

The target of one test is human GLP-1 receptor (human, UniProt P43220 24-463). Kind of test: cell-based or functional assay.
human GLP-1 receptor, sequence (P43220 24-463): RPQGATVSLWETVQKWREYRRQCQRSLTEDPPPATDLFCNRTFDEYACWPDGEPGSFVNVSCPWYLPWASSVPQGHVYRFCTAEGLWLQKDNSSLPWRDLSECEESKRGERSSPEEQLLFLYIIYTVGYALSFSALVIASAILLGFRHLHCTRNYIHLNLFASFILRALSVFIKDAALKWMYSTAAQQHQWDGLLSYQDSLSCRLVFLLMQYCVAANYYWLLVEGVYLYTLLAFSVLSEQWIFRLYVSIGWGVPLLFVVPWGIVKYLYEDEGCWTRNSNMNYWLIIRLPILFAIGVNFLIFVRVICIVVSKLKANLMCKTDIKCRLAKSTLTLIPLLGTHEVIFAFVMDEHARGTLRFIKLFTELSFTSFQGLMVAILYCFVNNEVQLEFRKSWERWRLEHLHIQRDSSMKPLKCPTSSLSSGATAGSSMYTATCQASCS
Another test addresses T1, human GIP receptor (human, UniProt P48546 22-466).
T1 sequence (looked up): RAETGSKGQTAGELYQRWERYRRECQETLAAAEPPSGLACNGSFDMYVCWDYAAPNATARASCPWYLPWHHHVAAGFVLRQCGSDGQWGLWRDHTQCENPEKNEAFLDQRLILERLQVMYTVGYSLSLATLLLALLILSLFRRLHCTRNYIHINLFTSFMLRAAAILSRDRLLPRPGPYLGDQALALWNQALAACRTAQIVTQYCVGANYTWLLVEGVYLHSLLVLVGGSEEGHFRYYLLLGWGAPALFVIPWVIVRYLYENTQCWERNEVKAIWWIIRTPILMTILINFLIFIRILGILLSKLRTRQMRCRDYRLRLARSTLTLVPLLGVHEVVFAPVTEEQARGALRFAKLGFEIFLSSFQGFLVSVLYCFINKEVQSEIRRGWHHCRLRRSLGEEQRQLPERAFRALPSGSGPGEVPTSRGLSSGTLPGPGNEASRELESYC
Nature of the test: cell-based or functional assay.

As for Y[Aib]EGTFISDYSIA[Nle]EKIHQQDFVNWLLAQ-NH2 [Analog 010], the “EC50, GLP-1 Receptor cAMP induction” value with human GLP-1 receptor was more than 2000 nM. For the same molecule, in the test with human GIP receptor, the “EC50, GIP Receptor cAMP induction” value worked out at 11.5 nM.

Regarding Y[Aib]EGTFTSDYSIF[Nle]EKIHQQDFVNWLLAQ-NH2 [Analog 011], in the test with human GLP-1 receptor, the “EC50, GLP-1 Receptor cAMP induction” value was found to be 1480 nM. Further, the “EC50, GIP Receptor cAMP induction” value with human GIP receptor turned out to be 693 nM.

Y[Aib]EGTFTSDYSIAMEKIHQQDFVNWLLAQ-NH2 [Analog 002]: the “EC50, GLP-1 Receptor cAMP induction” value with human GLP-1 receptor was 995 nM. In addition, the “EC50, GIP Receptor cAMP induction” value with human GIP receptor worked out at 11.1 nM.

As for Y[Aib]EGTFTSDYSIY[Nle]EKEAQQDFVNWLLAQ-NH2 [Analog 020], the “EC50, GLP-1 Receptor cAMP induction” value with human GLP-1 receptor was 830 nM. In the test with human GIP receptor, the “EC50, GIP Receptor cAMP induction” value worked out at 0.27 nM and the “Relative Potency, GIP Receptor” value was determined as 51.8%.

In the case of Y[Aib]EGTFTSDYSI[Phe(4-NO2)][Nle]EKIHQQDFVNWLLAQ-NH2 [Analog 008], the “EC50, GLP-1 Receptor cAMP induction” value with human GLP-1 receptor was determined as 1580 nM. Further, the “EC50, GIP Receptor cAMP induction” value in the test with human GIP receptor is 24.2 nM.

B1: Analog 084 (peptide)
peptide: Y[Aib]EGTFTSDYSEYMEKEAVREFIAWLVKGK(Palmitoyl)-NH2
modifications: lactam 12-16; N-terminus assumed
SMILES: CCCCCCCCCCCCCCCC(=O)NCCCC[C@H](NC(=O)CNC(=O)[C@H](CCCCN)NC(=O)[C@@H](NC(=O)[C@H](CC(C)C)NC(=O)[C@H](Cc1c[nH]c2ccccc12)NC(=O)[C@H](C)NC(=O)[C@@H](NC(=O)[C@H](Cc1ccccc1)NC(=O)[C@H](CCC(=O)O)NC(=O)[C@H](CCCNC(=N)N)NC(=O)[C@@H](NC(=O)[C@H](C)NC(=O)[C@H](CCC(=O)O)NC(=O)[C@@H]1CCCCNC(=O)CC[C@H](NC(=O)[C@H](CO)NC(=O)[C@H](Cc2ccc(O)cc2)NC(=O)[C@H](CC(=O)O)NC(=O)[C@H](CO)NC(=O)[C@@H](NC(=O)[C@H](Cc2ccccc2)NC(=O)[C@@H](NC(=O)CNC(=O)[C@H](CCC(=O)O)NC(=O)C(C)(C)NC(=O)[C@@H](N)Cc2ccc(O)cc2)[C@@H](C)O)[C@@H](C)O)C(=O)N[C@@H](Cc2ccc(O)cc2)C(=O)N[C@@H](CCSC)C(=O)N[C@@H](CCC(=O)O)C(=O)N1)C(C)C)[C@@H](C)CC)C(C)C)C(N)=O
For B1, in the test with human GLP-1 receptor, the “EC50, GLP-1 Receptor cAMP induction” value amounted to 4.8 nM and the “Relative Potency, GLP-1 Receptor” value is 22.2%. Moreover, in the test with human GIP receptor, the “EC50, GIP Receptor cAMP induction” value came to 1.34 nM and the “Relative Potency, GIP Receptor” value was 8.8%.

With Y[Aib]EGTFTSDYSIF[Met(O)]EKIHQQDFVNWLLAQ-NH2 [Analog 007], the “EC50, GLP-1 Receptor cAMP induction” value with human GLP-1 receptor stood at 836 nM. In addition, the “EC50, GIP Receptor cAMP induction” value in the test with human GIP receptor came to 19 nM.

B2: Analog 075 (peptide)
peptide: Y[Aib]EGTFTSDYSIYMEKEAVREFIAWLVKGRRRRRR-NH2
modifications: N-terminus assumed
SMILES: CC[C@H](C)[C@H](NC(=O)[C@H](Cc1ccccc1)NC(=O)[C@H](CCC(=O)O)NC(=O)[C@H](CCCNC(=N)N)NC(=O)[C@@H](NC(=O)[C@H](C)NC(=O)[C@H](CCC(=O)O)NC(=O)[C@H](CCCCN)NC(=O)[C@H](CCC(=O)O)NC(=O)[C@H](CCSC)NC(=O)[C@H](Cc1ccc(O)cc1)NC(=O)[C@@H](NC(=O)[C@H](CO)NC(=O)[C@H](Cc1ccc(O)cc1)NC(=O)[C@H](CC(=O)O)NC(=O)[C@H](CO)NC(=O)[C@@H](NC(=O)[C@H](Cc1ccccc1)NC(=O)[C@@H](NC(=O)CNC(=O)[C@H](CCC(=O)O)NC(=O)C(C)(C)NC(=O)[C@@H](N)Cc1ccc(O)cc1)[C@@H](C)O)[C@@H](C)O)[C@@H](C)CC)C(C)C)C(=O)N[C@@H](C)C(=O)N[C@@H](Cc1c[nH]c2ccccc12)C(=O)N[C@@H](CC(C)C)C(=O)N[C@H](C(=O)N[C@@H](CCCCN)C(=O)NCC(=O)N[C@@H](CCCNC(=N)N)C(=O)N[C@@H](CCCNC(=N)N)C(=O)N[C@@H](CCCNC(=N)N)C(=O)N[C@@H](CCCNC(=N)N)C(=O)N[C@@H](CCCNC(=N)N)C(=O)N[C@@H](CCCNC(=N)N)C(N)=O)C(C)C
With B2, in the test with human GLP-1 receptor, the “EC50, GLP-1 Receptor cAMP induction” value was 1.41 nM and the “Relative Potency, GLP-1 Receptor” value was 77.7%. Also, in the test with human GIP receptor, the “EC50, GIP Receptor cAMP induction” value worked out at 1.45 nM and the “Relative Potency, GIP Receptor” value came to 8.3%.

For the molecule Y[Aib]EGTFTSDYSI[Phg][Nle]EKIHQQDFVNWLLAQ-NH2 [Analog 009], the “EC50, GLP-1 Receptor cAMP induction” value with human GLP-1 receptor was more than 2000 nM. For the same molecule, the “EC50, GIP Receptor cAMP induction” value with human GIP receptor is 22.2 nM.

B3: Analog 067 (peptide)
peptide: Y[Aib]EGTFTSDYSIYMEKEAVK(Palmitoyl)EFIAWLVKG-NH2
modifications: N-terminus assumed
SMILES: CCCCCCCCCCCCCCCC(=O)NCCCC[C@H](NC(=O)[C@@H](NC(=O)[C@H](C)NC(=O)[C@H](CCC(=O)O)NC(=O)[C@H](CCCCN)NC(=O)[C@H](CCC(=O)O)NC(=O)[C@H](CCSC)NC(=O)[C@H](Cc1ccc(O)cc1)NC(=O)[C@@H](NC(=O)[C@H](CO)NC(=O)[C@H](Cc1ccc(O)cc1)NC(=O)[C@H](CC(=O)O)NC(=O)[C@H](CO)NC(=O)[C@@H](NC(=O)[C@H](Cc1ccccc1)NC(=O)[C@@H](NC(=O)CNC(=O)[C@H](CCC(=O)O)NC(=O)C(C)(C)NC(=O)[C@@H](N)Cc1ccc(O)cc1)[C@@H](C)O)[C@@H](C)O)[C@@H](C)CC)C(C)C)C(=O)N[C@@H](CCC(=O)O)C(=O)N[C@@H](Cc1ccccc1)C(=O)N[C@H](C(=O)N[C@@H](C)C(=O)N[C@@H](Cc1c[nH]c2ccccc12)C(=O)N[C@@H](CC(C)C)C(=O)N[C@H](C(=O)N[C@@H](CCCCN)C(=O)NCC(N)=O)C(C)C)[C@@H](C)CC
B3: in the test with human GLP-1 receptor, the “EC50, GLP-1 Receptor cAMP induction” value was 7.87 nM and the “Relative Potency, GLP-1 Receptor” value was 13.9%. Besides, in the test with human GIP receptor, the “EC50, GIP Receptor cAMP induction” value worked out at 3.7 nM and the “Relative Potency, GIP Receptor” value is 4.6%.

In the case of Y[Aib]EGTFTSDYSIYMEKIHQQDFVNWLLAQ-NH2 [Analog 003], the “EC50, GLP-1 Receptor cAMP induction” value in the test with human GLP-1 receptor worked out at 483 nM. In addition, in the test with human GIP receptor, the “EC50, GIP Receptor cAMP induction” value is 0.18 nM and the “Relative Potency, GIP Receptor” value was determined as 77.7%.

Regarding Y[Aib]EGTFTSDYSI[Phe(4-F)][Met(O)]EKIHQQDFVNWLLAQ-NH2 [Analog 004], the “EC50, GLP-1 Receptor cAMP induction” value in the test with human GLP-1 receptor came to 926 nM. Besides, the “EC50, GIP Receptor cAMP induction” value with human GIP receptor was determined as 14.6 nM.

Consider Y[Aib]EGTFTSDYSI[Phe(4-NO2)][Met(O)]EKIHQQDFVNWLLAQ-NH2 [Analog 005], for which the “EC50, GLP-1 Receptor cAMP induction” value with human GLP-1 receptor was more than 2000 nM. Besides, the “EC50, GIP Receptor cAMP induction” value with human GIP receptor came to 76.5 nM.

For Y[Aib]EGTFTSDYSIY[Nle]EKIHQQDFVNWLVRQ-NH2 [Analog 021], in the test with human GLP-1 receptor, the “EC50, GLP-1 Receptor cAMP induction” value is 217 nM. In the test with human GIP receptor, the “EC50, GIP Receptor cAMP induction” value stood at 2.3 nM and the “Relative Potency, GIP Receptor” value is 21.7%.

For Y[Aib]EGTFTSDYSI[Phe(4-NO2)]MEKIHQQDFVNWLLAQ-NH2 [Analog 016], the “EC50, GLP-1 Receptor cAMP induction” value with human GLP-1 receptor stood at 1670 nM. Moreover, the “EC50, GIP Receptor cAMP induction” value with human GIP receptor worked out at 18.3 nM.

B4: Analog 006 (peptide)
peptide: Y[Aib]EGTFISDYSIA[Met(O)]EKIHQQDFVNWLLAQ-NH2
modifications: N-terminus assumed
SMILES: CC[C@H](C)[C@H](NC(=O)[C@H](CO)NC(=O)[C@H](Cc1ccc(O)cc1)NC(=O)[C@H](CC(=O)O)NC(=O)[C@H](CO)NC(=O)[C@@H](NC(=O)[C@H](Cc1ccccc1)NC(=O)[C@@H](NC(=O)CNC(=O)[C@H](CCC(=O)O)NC(=O)C(C)(C)NC(=O)[C@@H](N)Cc1ccc(O)cc1)[C@@H](C)O)[C@@H](C)CC)C(=O)N[C@@H](C)C(=O)N[C@@H](CCS(C)=O)C(=O)N[C@@H](CCC(=O)O)C(=O)N[C@@H](CCCCN)C(=O)N[C@H](C(=O)N[C@@H](Cc1c[nH]cn1)C(=O)N[C@@H](CCC(N)=O)C(=O)N[C@@H](CCC(N)=O)C(=O)N[C@@H](CC(=O)O)C(=O)N[C@@H](Cc1ccccc1)C(=O)N[C@H](C(=O)N[C@@H](CC(N)=O)C(=O)N[C@@H](Cc1c[nH]c2ccccc12)C(=O)N[C@@H](CC(C)C)C(=O)N[C@@H](CC(C)C)C(=O)N[C@@H](C)C(=O)N[C@@H](CCC(N)=O)C(N)=O)C(C)C)[C@@H](C)CC
For B4, the “EC50, GLP-1 Receptor cAMP induction” value in the test with human GLP-1 receptor was more than 2000 nM. Further, the “EC50, GIP Receptor cAMP induction” value with human GIP receptor is 6.66 nM.
